# Reference: paper PMC12416549 (2024)
# T1: TNFR1 (Homo sapiens, UniProt P19438)
# T1 chain: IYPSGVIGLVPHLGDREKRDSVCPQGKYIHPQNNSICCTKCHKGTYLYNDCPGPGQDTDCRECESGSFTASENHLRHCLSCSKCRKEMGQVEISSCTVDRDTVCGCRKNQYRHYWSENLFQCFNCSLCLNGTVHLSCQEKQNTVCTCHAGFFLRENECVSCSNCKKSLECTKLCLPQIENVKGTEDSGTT
# Target: T1, TNFR1
# Assay: yeast display SC50
row,Binder,apparent Kd (screen) [nM]
1,V57G (designed binder) MTLQELLREEALRRAEAEAFRYALELLAEKFPEQKEYLLDLAEEIESQIRSLSGVDGEDVRKFLDKEWAWVKELLAEHPAELAEVEAARAARLAELRAEVEAKVAA,1.86
2,R13T (designed binder) MTLQELLREEALTRAEAEAFRYALELLAEKFPEQKEYLLDLAEEIESQIRSLSGVDVEDVRKFLDKEWAWVKELLAEHPAELAEVEAARAARLAELRAEVEAKVAA,0.335
3,F31T (designed binder) MTLQELLREEALRRAEAEAFRYALELLAEKTPEQKEYLLDLAEEIESQIRSLSGVDVEDVRKFLDKEWAWVKELLAEHPAELAEVEAARAARLAELRAEVEAKVAA,0.593
4,R50W (designed binder) MTLQELLREEALRRAEAEAFRYALELLAEKFPEQKEYLLDLAEEIESQIWSLSGVDVEDVRKFLDKEWAWVKELLAEHPAELAEVEAARAARLAELRAEVEAKVAA,2.73
5,V57M (designed binder) MTLQELLREEALRRAEAEAFRYALELLAEKFPEQKEYLLDLAEEIESQIRSLSGVDMEDVRKFLDKEWAWVKELLAEHPAELAEVEAARAARLAELRAEVEAKVAA,2.48
6,I45Y (designed binder) MTLQELLREEALRRAEAEAFRYALELLAEKFPEQKEYLLDLAEEYESQIRSLSGVDVEDVRKFLDKEWAWVKELLAEHPAELAEVEAARAARLAELRAEVEAKVAA,1.86
7,E29M (designed binder) MTLQELLREEALRRAEAEAFRYALELLAMKFPEQKEYLLDLAEEIESQIRSLSGVDVEDVRKFLDKEWAWVKELLAEHPAELAEVEAARAARLAELRAEVEAKVAA,0.539
8,E46W (designed binder) MTLQELLREEALRRAEAEAFRYALELLAEKFPEQKEYLLDLAEEIWSQIRSLSGVDVEDVRKFLDKEWAWVKELLAEHPAELAEVEAARAARLAELRAEVEAKVAA,0.368
9,E18M (designed binder) MTLQELLREEALRRAEAMAFRYALELLAEKFPEQKEYLLDLAEEIESQIRSLSGVDVEDVRKFLDKEWAWVKELLAEHPAELAEVEAARAARLAELRAEVEAKVAA,0.49
10,T2R (designed binder) MRLQELLREEALRRAEAEAFRYALELLAEKFPEQKEYLLDLAEEIESQIRSLSGVDVEDVRKFLDKEWAWVKELLAEHPAELAEVEAARAARLAELRAEVEAKVAA,0.956
11,L6R (designed binder) MTLQERLREEALRRAEAEAFRYALELLAEKFPEQKEYLLDLAEEIESQIRSLSGVDVEDVRKFLDKEWAWVKELLAEHPAELAEVEAARAARLAELRAEVEAKVAA,12.5
12,M1V (designed binder) VTLQELLREEALRRAEAEAFRYALELLAEKFPEQKEYLLDLAEEIESQIRSLSGVDVEDVRKFLDKEWAWVKELLAEHPAELAEVEAARAARLAELRAEVEAKVAA,0.539
13,F31C (designed binder) MTLQELLREEALRRAEAEAFRYALELLAEKCPEQKEYLLDLAEEIESQIRSLSGVDVEDVRKFLDKEWAWVKELLAEHPAELAEVEAARAARLAELRAEVEAKVAA,0.653
14,Y22W (designed binder) MTLQELLREEALRRAEAEAFRWALELLAEKFPEQKEYLLDLAEEIESQIRSLSGVDVEDVRKFLDKEWAWVKELLAEHPAELAEVEAARAARLAELRAEVEAKVAA,0.49
15,V55W (designed binder) MTLQELLREEALRRAEAEAFRYALELLAEKFPEQKEYLLDLAEEIESQIRSLSGWDVEDVRKFLDKEWAWVKELLAEHPAELAEVEAARAARLAELRAEVEAKVAA,1.16

# Now from value to binder:
row,apparent Kd (screen) [nM],Binder
1,0.49,A76S (designed binder) MTLQELLREEALRRAEAEAFRYALELLAEKFPEQKEYLLDLAEEIESQIRSLSGVDVEDVRKFLDKEWAWVKELLSEHPAELAEVEAARAARLAELRAEVEAKVAA
2,0.446,A102R (designed binder) MTLQELLREEALRRAEAEAFRYALELLAEKFPEQKEYLLDLAEEIESQIRSLSGVDVEDVRKFLDKEWAWVKELLAEHPAELAEVEAARAARLAELRAEVERKVAA
3,0.49,A83W (designed binder) MTLQELLREEALRRAEAEAFRYALELLAEKFPEQKEYLLDLAEEIESQIRSLSGVDVEDVRKFLDKEWAWVKELLAEHPAELWEVEAARAARLAELRAEVEAKVAA
4,0.49,L96H (designed binder) MTLQELLREEALRRAEAEAFRYALELLAEKFPEQKEYLLDLAEEIESQIRSLSGVDVEDVRKFLDKEWAWVKELLAEHPAELAEVEAARAARLAEHRAEVEAKVAA
5,1.05,E101T (designed binder) MTLQELLREEALRRAEAEAFRYALELLAEKFPEQKEYLLDLAEEIESQIRSLSGVDVEDVRKFLDKEWAWVKELLAEHPAELAEVEAARAARLAELRAEVTAKVAA
6,0.49,A88L (designed binder) MTLQELLREEALRRAEAEAFRYALELLAEKFPEQKEYLLDLAEEIESQIRSLSGVDVEDVRKFLDKEWAWVKELLAEHPAELAEVEALRAARLAELRAEVEAKVAA
7,0.446,E95M (designed binder) MTLQELLREEALRRAEAEAFRYALELLAEKFPEQKEYLLDLAEEIESQIRSLSGVDVEDVRKFLDKEWAWVKELLAEHPAELAEVEAARAARLAMLRAEVEAKVAA
8,0.49,V100F (designed binder) MTLQELLREEALRRAEAEAFRYALELLAEKFPEQKEYLLDLAEEIESQIRSLSGVDVEDVRKFLDKEWAWVKELLAEHPAELAEVEAARAARLAELRAEFEAKVAA
9,0.593,K72Y (designed binder) MTLQELLREEALRRAEAEAFRYALELLAEKFPEQKEYLLDLAEEIESQIRSLSGVDVEDVRKFLDKEWAWVYELLAEHPAELAEVEAARAARLAELRAEVEAKVAA
10,0.593,K72V (designed binder) MTLQELLREEALRRAEAEAFRYALELLAEKFPEQKEYLLDLAEEIESQIRSLSGVDVEDVRKFLDKEWAWVVELLAEHPAELAEVEAARAARLAELRAEVEAKVAA
11,0.539,A102C (designed binder) MTLQELLREEALRRAEAEAFRYALELLAEKFPEQKEYLLDLAEEIESQIRSLSGVDVEDVRKFLDKEWAWVKELLAEHPAELAEVEAARAARLAELRAEVECKVAA
12,0.49,A80D (designed binder) MTLQELLREEALRRAEAEAFRYALELLAEKFPEQKEYLLDLAEEIESQIRSLSGVDVEDVRKFLDKEWAWVKELLAEHPDELAEVEAARAARLAELRAEVEAKVAA
13,0.446,A83L (designed binder) MTLQELLREEALRRAEAEAFRYALELLAEKFPEQKEYLLDLAEEIESQIRSLSGVDVEDVRKFLDKEWAWVKELLAEHPAELLEVEAARAARLAELRAEVEAKVAA
14,0.446,E77L (designed binder) MTLQELLREEALRRAEAEAFRYALELLAEKFPEQKEYLLDLAEEIESQIRSLSGVDVEDVRKFLDKEWAWVKELLALHPAELAEVEAARAARLAELRAEVEAKVAA
15,0.593,H78D (designed binder) MTLQELLREEALRRAEAEAFRYALELLAEKFPEQKEYLLDLAEEIESQIRSLSGVDVEDVRKFLDKEWAWVKELLAEDPAELAEVEAARAARLAELRAEVEAKVAA
16,0.49,L96T (designed binder) MTLQELLREEALRRAEAEAFRYALELLAEKFPEQKEYLLDLAEEIESQIRSLSGVDVEDVRKFLDKEWAWVKELLAEHPAELAEVEAARAARLAETRAEVEAKVAA
17,0.869,A91M (designed binder) MTLQELLREEALRRAEAEAFRYALELLAEKFPEQKEYLLDLAEEIESQIRSLSGVDVEDVRKFLDKEWAWVKELLAEHPAELAEVEAARAMRLAELRAEVEAKVAA
18,0.49,A76L (designed binder) MTLQELLREEALRRAEAEAFRYALELLAEKFPEQKEYLLDLAEEIESQIRSLSGVDVEDVRKFLDKEWAWVKELLLEHPAELAEVEAARAARLAELRAEVEAKVAA
19,0.539,E101V (designed binder) MTLQELLREEALRRAEAEAFRYALELLAEKFPEQKEYLLDLAEEIESQIRSLSGVDVEDVRKFLDKEWAWVKELLAEHPAELAEVEAARAARLAELRAEVVAKVAA
20,0.869,V104W (designed binder) MTLQELLREEALRRAEAEAFRYALELLAEKFPEQKEYLLDLAEEIESQIRSLSGVDVEDVRKFLDKEWAWVKELLAEHPAELAEVEAARAARLAELRAEVEAKWAA
